Measured values: patent US20040259198

Target: T1, recombinant human MAT II β subunit protein with N-terminal poly-His tag, expressed in E. coli from pQE-30 (Clone 5)
T1 chain: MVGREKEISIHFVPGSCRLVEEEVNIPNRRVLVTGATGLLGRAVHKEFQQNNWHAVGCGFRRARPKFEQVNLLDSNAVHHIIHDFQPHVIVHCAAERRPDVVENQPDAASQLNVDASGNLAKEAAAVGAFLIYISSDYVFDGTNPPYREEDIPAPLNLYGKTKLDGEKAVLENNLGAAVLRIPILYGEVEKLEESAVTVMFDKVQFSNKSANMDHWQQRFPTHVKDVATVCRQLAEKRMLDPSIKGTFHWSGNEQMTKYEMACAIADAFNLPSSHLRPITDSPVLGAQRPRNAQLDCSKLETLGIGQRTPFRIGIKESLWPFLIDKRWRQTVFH

B1: endogenous E. coli MAT α subunit (protein)
chain: AKHLFTSESVSEGHPDKIADQISDAVLDAILEQDPKARVACETYVKTGMVLVGGEITTSAWVDIEEITRNTVREIGYVHSDMGFDANSCAVLSAIGKQSPDINQGVDRADPLEQGAGDQGLMFGYATNETDVLMPAPITYAHRLVQRQAEVRKNGTLPWLRPDAKSQVTFQYDDGKIVGIDAVVLSTQHSEEIDQKSLQEAVMEEIIKPILPAEWLTSATKFFINPTGRFVIGGPMGDCGLTGRKIIVDTYGGMARHGGGAFSGKDPSKVDRSAAYAARYVAKNIVAAGLADRCEIQVSYAIGVAEPTSIMVETFGTEKVPSEQLTLLVREFFDLRPYGLIQMLDLLHPIYKETAAYGHFGREHFPWEKTDKAQLLRDAAGLK
For B1, the “Km of MAT for L-methionine” value was “This association changed the kinetic properties of the enzyme and lowered the Km of MAT for L-methionine”.
